Measurements taken from paper PMC11496107.

Tests used:
co-repressor peptide = assay: fluorescence polarisation; fluorescence anisotropy assay in vitro, receptor LBD with co-repressor peptide; conditions not shown (Supplementary Methods)
Gal4-NCoR (ID 1 + 2) = assay: mammalian two-hybrid assay (luciferase reporter, HEK293 cells); settings: 20 h, parent: 100, read off a plot

A fold reduction of affinity (against the wild-type LBD) (co-repressor peptide) of 2 fold was found for “LXRα ligand-binding domain (LBD) p.M346V (domain or fragment)” in this work.

A percent of parent (Gal4-NCoR (ID 1 + 2); LOF sub-panel, highest T0901317 (T09) dose plotted (rightmost point)) of 100 % WT and a percent of parent (Gal4-NCoR (ID 1 + 2); LOF sub-panel, untreated condition (leftmost point, plotted an order of magnitude below the lowest T09 dose)) of 75 % WT were found for “LXRα-VP16 (wild-type liver X receptor-α fused to VP16) mutant L217P [human] / Gal4-NCoR (ID 1 + 2) [not stated] chain 1 L217P” in this work.

A percent of parent (Gal4-NCoR (ID 1 + 2); GOF sub-panel, highest T0901317 (T09) dose plotted (rightmost point)) of 12 % WT and a percent of parent (Gal4-NCoR (ID 1 + 2); GOF sub-panel, untreated condition (leftmost point, plotted an order of magnitude below the lowest T09 dose)) of 65 % WT were found for “LXRα-VP16 (wild-type liver X receptor-α fused to VP16) mutant M346V [human] / Gal4-NCoR (ID 1 + 2) [not stated] chain 1 M346V” in this work.
